Laboratory results: doi:10.1101/2023.05.22.541748

Experiments:
Ubc13 C87K/K92T/K94Q = Ubc13 C87K/K92T/K94Q (UniProt P61088); assay: NMR
Ubc13 = Ubc13 (UniProt P61088); assay: NMR titration
Ubc13, sequence (P61088 whole entry): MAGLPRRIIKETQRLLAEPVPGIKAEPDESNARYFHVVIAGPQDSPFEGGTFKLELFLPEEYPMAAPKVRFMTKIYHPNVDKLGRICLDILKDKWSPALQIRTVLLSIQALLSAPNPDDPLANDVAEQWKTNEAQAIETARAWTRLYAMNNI

Ubc13 C87K/K92T/K94Q, sequence (P61088 whole entry C87K/K92T/K94Q): as the sequence (P61088 whole entry) above, with C87K, K92T, K94Q counted along it

Substance | population of the closed state of the conjugate (Ubc13 C87K/K92T/K94Q) [%] | population of the closed state of the conjugate with RNF38 RING (Ubc13 C87K/K92T/K94Q) [%] | Kd (Ubc13) [µM]
ubiquitin (wild type, Q40Ub) (from UniProt P0CG48 1-76) (natural protein) | 60 | 80 | –
RNF38 RING domain (residues 387-465) (domain or fragment) | – | – | 55
